Columns and labels:
Experiment in all cases: cell-based or functional assay
[1] = target: human amylin 3(a) receptor (human calcitonin receptor co-expressed with RAMP-3) (human) (UniProt P30988)
[2] = target: human amylin 3(a) receptor (human calcitonin receptor with RAMP-3) (human) (UniProt P30988)
[3] = target: human calcitonin (a) receptor (human) (UniProt P30988)
Chain of human calcitonin (a) receptor (human) (P30988 25-474): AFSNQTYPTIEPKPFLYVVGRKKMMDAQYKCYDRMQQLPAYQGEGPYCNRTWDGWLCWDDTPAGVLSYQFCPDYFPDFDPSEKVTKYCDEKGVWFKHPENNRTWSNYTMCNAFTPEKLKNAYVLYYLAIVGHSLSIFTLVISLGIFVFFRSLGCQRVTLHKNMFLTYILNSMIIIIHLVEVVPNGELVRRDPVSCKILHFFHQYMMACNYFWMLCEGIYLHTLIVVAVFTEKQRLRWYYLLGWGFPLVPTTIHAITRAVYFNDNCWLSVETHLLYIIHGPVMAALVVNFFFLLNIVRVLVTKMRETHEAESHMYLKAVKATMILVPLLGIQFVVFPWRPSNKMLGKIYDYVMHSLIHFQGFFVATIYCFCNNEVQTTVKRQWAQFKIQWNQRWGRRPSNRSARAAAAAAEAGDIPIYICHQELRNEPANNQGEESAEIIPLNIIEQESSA

Chain of human amylin 3(a) receptor (human calcitonin receptor co-expressed with RAMP-3) (human) (P30988 25-474, chain 1 of 2): as the sequence (P30988 25-474) above
Chain of human amylin 3(a) receptor (human calcitonin receptor co-expressed with RAMP-3) (human) (O60896 24-148, chain 2 of 2, further chain): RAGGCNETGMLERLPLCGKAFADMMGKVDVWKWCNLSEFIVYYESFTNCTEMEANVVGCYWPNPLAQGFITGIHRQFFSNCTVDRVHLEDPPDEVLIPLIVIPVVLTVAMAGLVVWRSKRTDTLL
Chain of human amylin 3(a) receptor (human calcitonin receptor with RAMP-3) (human) (P30988 25-474, chain 1 of 2): as the sequence (P30988 25-474) above
Chain of human amylin 3(a) receptor (human calcitonin receptor with RAMP-3) (human) (O60896 24-148, chain 2 of 2, further chain): as the sequence (O60896 24-148, chain 2 of 2, further chain) above

- Amylin receptor human EC50 (pM) [1]: 45 pM
- Amylin receptor human EC50 (pM) [2]: 45 pM
- CTa receptor human EC50 (pM) [3]: 61.5 pM
Substance: N-alpha-(19-carboxynonadecanoyl)-Glu-Glu-Arg-[Glu1,Pro37]-pramlintide (peptide)

Source: US20130012427A1
